Patent US20240270846A1 (published 2024)
Where a chain is given by its changes, count along the chain named. Values belong to the binder of their own block, whether it stands above or below them.

Biological target: T1, CD3 epsilon homodimer protein (UniProt P07766 23-126)
T1 construct: also called CD3 (CD3 epsilon)
Test: SPR Biacore T200, CD3 epsilon homodimer on chip, antibody as analyte;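 further: homodimer amine-coupled to a CM4 sensor chip, run at 25 °C in HBS-EP+ buffer, with kinetic parameters derived in Biacore T200 Evaluation Software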

T1 sequence (P07766 23-126): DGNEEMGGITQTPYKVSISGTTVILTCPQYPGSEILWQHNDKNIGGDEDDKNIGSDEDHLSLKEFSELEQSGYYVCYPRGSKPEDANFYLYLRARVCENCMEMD

B1: CE115HA000 H chain altered form N53I (antibody, human IgG1, kappa, L234A L235A, N297A, name in Kabat numbering)
heavy: QVQLVESGGGVVQPGRSLRLSCAASGFTFSNAWMHWVRQAPGKGLEWVAQIKAKSINYATYYAESVKGRFTISRDDSKNSLYLQMNSLKTEDTAVYYCRYVHYGAYYGVDAWGQGTTVTVSSASTKGPSVFPLAPSSKSTSGGTAALGCLVKDYFPEPVTVSWNSGALTSGVHTFPAVLQSSGLYSLSSVVTVPSSSLGTQTYICNVNHKPSNTKVDKKVEPKSCDKTHTCPPCPAPEAAGGPSVFLFPPKPKDTLMISRTPEVTCVVVDVSHEDPEVKFNWYVDGVEVHNAKTKPREEQYASTYRVVSVLTVLHQDWLNGKEYKCKVSNKALPAPIEKTISKAKGQPREPQVYTLPPSRCELTKNQVSLSCAVKGFYPSDIAVEWESNGQPENNYKTTPPVLDSDGSFFLVSKLTVDKSRWQQGNVFSCSVMHEALHNHYTQKSLSLSPDYKDDDDK
chain: EPKSSDKTHTCPPCPAPELLGGPSVFLFPPKPKDTLMISRTPEVTCVVVDVSHEDPEVKFNWYVDGVEVHNAKTKPREEQYNSTYRVVSVLTVLHQDWLNGKEYKCKVSNKALPAPIEKTISKAKGQPREPQVCTLPPSRDELTKNQVSLWCLVKGFYPSDIAVEWESNGQPENNYKTTPPVLDSDGSFFLYSKLTVDKSRWQQGNVFSCSVMHEALHNRYTQKSLSLSP
light: DIVMTQSPLSLPVTPGEPASISCRSSQSLVHSNRNTYLHWYQQKPGQAPRLLIYKVSNRFSGVPDRFSGSGSGTDFTLKISRVEAEDVGVYYCGQGTQVPYTFGQGTKLEIKRTVAAPSVFIFPPSDEQLKSGTASVVCLLNNFYPREAKVQWKVDNALQSGNSQESVTEQDSKDSTYSLSSTLTLSKADYEKHKVYACEVTHQGLSSPVTKSFNRGEC
notes: one-arm antibody
KD ratio (KD of CE115HA000 / KD of altered form): 0.57

B4: CE115HA000 H chain altered form N53K (antibody, human IgG1, kappa, L234A L235A, N297A, name in Kabat numbering)
heavy: B1 heavy with I56K
chain: B1 chain
light: B1 light
notes: one-arm antibody
KD ratio (KD of CE115HA000 / KD of altered form): 0.79

B5: CE115HA000 H chain altered form N54D (antibody, human IgG1, kappa, L234A L235A, N297A, name in Kabat numbering)
heavy: B1 heavy with I56N, N57D
chain: B1 chain
light: B1 light
notes: one-arm antibody
KD ratio (KD of CE115HA000 / KD of altered form): 0.59

B7: CE115HA000 H chain altered form N53W (antibody, human IgG1, kappa, L234A L235A, N297A, name in Kabat numbering)
heavy: B1 heavy with I56W
chain: B1 chain
light: B1 light
notes: one-arm antibody
KD ratio (KD of CE115HA000 / KD of altered form): 0.69

B8: CE115HA000 H chain altered form N54A (antibody, human IgG1, kappa, L234A L235A, N297A, name in Kabat numbering)
heavy: B1 heavy with I56N, N57A
chain: B1 chain
light: B1 light
notes: one-arm antibody
KD ratio (KD of CE115HA000 / KD of altered form): 0.58

B9: CE115HA000 H chain altered form N54F (antibody, human IgG1, kappa, L234A L235A, N297A, name in Kabat numbering)
heavy: B1 heavy with I56N, N57F
chain: B1 chain
light: B1 light
notes: one-arm antibody
KD ratio (KD of CE115HA000 / KD of altered form): 0.97

B10: CE115HA000 H chain altered form N53S (antibody, human IgG1, kappa, L234A L235A, N297A, name in Kabat numbering)
heavy: B1 heavy with I56S
chain: B1 chain
light: B1 light
notes: one-arm antibody
KD ratio (KD of CE115HA000 / KD of altered form): 0.59

Continued, values first:

KD ratio (KD of CE115HA000 / KD of altered form): 0.84
B2: CE115HA000 H chain altered form N54G (antibody, human IgG1, kappa, L234A L235A, N297A, name in Kabat numbering)
heavy: B1 heavy with I56N, N57G
chain: B1 chain
light: B1 light
notes: one-arm antibody

KD ratio (KD of CE115HA000 / KD of altered form): 1.05
B3: CE115HA000 H chain altered form N53Q (antibody, human IgG1, kappa, L234A L235A, N297A, name in Kabat numbering)
heavy: B1 heavy with I56Q
chain: B1 chain
light: B1 light
notes: one-arm antibody

KD ratio (KD of CE115HA000 / KD of altered form): 0.94
B6: CE115HA000 H chain altered form N53Y (antibody, human IgG1, kappa, L234A L235A, N297A, name in Kabat numbering)
heavy: B1 heavy with I56Y
chain: B1 chain
light: B1 light
notes: one-arm antibody
